According to patent US20220291215A1:

Tests used:
[1] = target: DQ6 (DQA1*01:02-DQB1*06:02)-restricted influenza virus HA-specific TCR (DM2); assay: flow cytometry, TCR-transduced primary T cells
[2] = target: memory CD4+ T cells from DP4+ donors, unstimulated (a small subset; their TCRs); assay: flow cytometry ex vivo; 49894 evts in the dimer- CD4+ gate
[3] = target: memory CD4+ T cells from DP4+ donors, unstimulated (a small subset; their TCRs); assay: flow cytometry ex vivo; 122436 evts in the dimer- CD4+ gate
[4] = target: memory CD4+ T cells from DP4+ donors, unstimulated (a small subset; their TCRs); assay: flow cytometry ex vivo; 82428 evts in the dimer- CD4+ gate
[5] = target: memory CD4+ T cells from DP4+ donors, unstimulated (a small subset; their TCRs); assay: flow cytometry ex vivo; 73637 evts in the dimer- CD4+ gate
[6] = target: memory CD4+ T cells from DP4+ donors, unstimulated (a small subset; their TCRs); assay: flow cytometry ex vivo; 159441 evts in the dimer- CD4+ gate
[7] = target: memory CD4+ T cells from DP4+ donors, unstimulated (a small subset; their TCRs); assay: flow cytometry ex vivo; 80783 evts in the dimer- CD4+ gate
[8] = target: memory CD4+ T cells from DP4+ donors, unstimulated (a small subset; their TCRs); assay: flow cytometry ex vivo; 50227 evts in the dimer- CD4+ gate
[9] = target: memory CD4+ T cells from DP4+ donors, unstimulated (a small subset; their TCRs); assay: flow cytometry ex vivo; 160045 evts in the dimer- CD4+ gate
[10] = target: memory CD4+ T cells from DP4+ donors, unstimulated (a small subset; their TCRs); assay: flow cytometry ex vivo; 122665 evts in the dimer- CD4+ gate
[11] = target: memory CD4+ T cells from DP4+ donors, unstimulated (a small subset; their TCRs); assay: flow cytometry ex vivo; 71402 evts in the dimer- CD4+ gate

**Q.** For “Control (DQ6^L114W/V143M+3reps dimer) (peptide-MHC)”, which % dimer+ CD4+ cells [1] is on record?
**A.** 0.1%

**Q.** What does the source list for “DP4^L112W/V141M dimer loaded with herpes simplex virus type-2-UL21283-302 (HSV-2-UL21283-302) (peptide-MHC)”?
**A.** events in the dimer+ CD4+ gate [2]: 1 evts; events in the dimer+ CD4+ gate [3]: 6 evts; events in the dimer+ CD4+ gate [4]: 1 evts; events in the dimer+ CD4+ gate [5]: 8 evts; events in the dimer+ CD4+ gate [6]: 1 evts

**Q.** How did the events in the dimer+ CD4+ gate [7] turn out when “DP4^L112W/V141M dimer loaded with respiratory syncytial virus glycoprotein162-175 (RSV-GP162-175) (peptide-MHC)” was run?
**A.** 4 evts

**Q.** And the events in the dimer+ CD4+ gate [8]?
**A.** 1 evts

**Q.** What about the events in the dimer+ CD4+ gate [9] of the same substance?
**A.** 37 evts

**Q.** And the events in the dimer+ CD4+ gate [10]?
**A.** 10 evts

**Q.** And the events in the dimer+ CD4+ gate [11]?
**A.** 25 evts

**Q.** Which percent multimer-positive CD4+ cells (number at the gate) (DR1-restricted TCR HA1.7) does the source give for “DR1 dextramer (PE), Flu-HA306-318 (peptide-MHC)” here?
**A.** 30.4%
